Assay results: patent publication US20260226133A1 (ANGELES THERAPEUTICS, published 2026)
Numbering of substitutions follows the chain as printed. In names and notes the source's numbering stands.

What was measured:
DLL3 = molecular target: T1, DLL3 (UniProt Q9NYJ7 27-618, limits assumed); experiment: Malibu-Glo assay; NLuc fusion supernatant on NCI-H82 cells, control K562 cells
T1 construct: whole, on cells
T1 sequence (looked up): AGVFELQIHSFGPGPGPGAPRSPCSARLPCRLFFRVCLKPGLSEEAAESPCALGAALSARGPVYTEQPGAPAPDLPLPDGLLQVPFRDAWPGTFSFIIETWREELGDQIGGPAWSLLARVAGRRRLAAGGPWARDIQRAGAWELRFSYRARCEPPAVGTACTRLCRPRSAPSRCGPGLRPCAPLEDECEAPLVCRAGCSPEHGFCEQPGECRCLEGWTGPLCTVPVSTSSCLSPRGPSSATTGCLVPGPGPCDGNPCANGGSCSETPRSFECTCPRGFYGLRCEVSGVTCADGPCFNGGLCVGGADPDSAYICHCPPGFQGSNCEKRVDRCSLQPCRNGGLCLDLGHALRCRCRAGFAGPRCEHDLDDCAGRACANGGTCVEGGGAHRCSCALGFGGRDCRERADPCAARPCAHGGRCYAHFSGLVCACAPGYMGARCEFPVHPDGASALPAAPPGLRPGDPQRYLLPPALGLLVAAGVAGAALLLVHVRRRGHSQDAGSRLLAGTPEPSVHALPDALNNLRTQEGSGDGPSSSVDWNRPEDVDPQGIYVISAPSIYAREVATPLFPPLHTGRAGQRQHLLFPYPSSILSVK

STEAP2 = molecular target: T2, STEAP2 (UniProt Q8NFT2 1-490, limits assumed); experiment: Malibu-Glo assay; NLuc fusion supernatant on LNCaP cells, control K562 cells
T2 construct: whole, on cells
T2 sequence (looked up): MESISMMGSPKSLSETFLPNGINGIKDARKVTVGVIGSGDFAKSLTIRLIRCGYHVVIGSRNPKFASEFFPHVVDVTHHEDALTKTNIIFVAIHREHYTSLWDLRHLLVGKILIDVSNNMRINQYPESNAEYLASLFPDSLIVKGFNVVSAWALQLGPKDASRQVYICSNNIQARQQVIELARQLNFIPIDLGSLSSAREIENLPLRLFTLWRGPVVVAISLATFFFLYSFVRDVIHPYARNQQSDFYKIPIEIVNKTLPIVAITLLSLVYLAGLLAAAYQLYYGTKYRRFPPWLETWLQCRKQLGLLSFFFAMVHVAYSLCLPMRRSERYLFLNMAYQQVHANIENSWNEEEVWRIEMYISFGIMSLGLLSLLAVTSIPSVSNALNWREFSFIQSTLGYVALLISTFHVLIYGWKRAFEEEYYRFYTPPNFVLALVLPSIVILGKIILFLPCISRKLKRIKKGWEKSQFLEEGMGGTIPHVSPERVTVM

CD33 = molecular target: T3, CD33 (UniProt P20138 18-364, limits assumed); experiment: Malibu-Glo assay; NLuc fusion supernatant on HL60 cells, control Jurkat cells
T3 construct: whole, on cells
T3 sequence (P20138 18-364 limits assumed): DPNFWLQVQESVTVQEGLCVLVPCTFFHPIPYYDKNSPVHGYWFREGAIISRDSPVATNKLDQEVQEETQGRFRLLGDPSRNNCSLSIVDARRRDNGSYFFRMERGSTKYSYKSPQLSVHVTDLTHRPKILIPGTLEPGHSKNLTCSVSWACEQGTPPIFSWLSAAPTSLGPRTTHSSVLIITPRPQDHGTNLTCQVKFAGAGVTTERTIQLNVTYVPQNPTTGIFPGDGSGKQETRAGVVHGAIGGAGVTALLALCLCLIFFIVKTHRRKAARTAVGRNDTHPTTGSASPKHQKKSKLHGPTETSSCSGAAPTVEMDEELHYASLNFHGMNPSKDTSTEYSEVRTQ

IL23R = molecular target: T4, IL23R (UniProt Q5VWK5 24-629, limits assumed); experiment: Malibu-Glo assay; NLuc fusion supernatant on L363 cells, control K562 cells
T4 construct: whole, on cells
T4 sequence (looked up): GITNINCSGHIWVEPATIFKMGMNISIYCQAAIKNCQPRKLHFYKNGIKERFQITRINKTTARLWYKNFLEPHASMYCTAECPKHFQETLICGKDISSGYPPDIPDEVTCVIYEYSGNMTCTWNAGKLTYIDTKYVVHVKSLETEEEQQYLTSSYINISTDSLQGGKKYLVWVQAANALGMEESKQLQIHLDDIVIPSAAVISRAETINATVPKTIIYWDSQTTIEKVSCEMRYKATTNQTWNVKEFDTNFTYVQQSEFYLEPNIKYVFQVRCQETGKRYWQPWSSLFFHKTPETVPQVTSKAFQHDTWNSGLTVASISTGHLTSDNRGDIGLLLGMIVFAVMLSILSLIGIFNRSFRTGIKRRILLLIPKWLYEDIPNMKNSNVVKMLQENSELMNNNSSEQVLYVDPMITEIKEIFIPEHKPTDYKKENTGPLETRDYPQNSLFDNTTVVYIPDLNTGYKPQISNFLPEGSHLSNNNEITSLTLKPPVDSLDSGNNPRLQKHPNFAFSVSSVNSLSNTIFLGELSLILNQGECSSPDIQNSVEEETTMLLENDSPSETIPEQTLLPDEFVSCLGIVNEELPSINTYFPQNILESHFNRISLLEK

CD19 = molecular target: T5, CD19 (UniProt P15391 20-556, limits assumed); experiment: Malibu-Glo assay; NLuc fusion supernatant on RAJI cells, control Jurkat cells
T5 construct: whole, on cells
T5 sequence (looked up): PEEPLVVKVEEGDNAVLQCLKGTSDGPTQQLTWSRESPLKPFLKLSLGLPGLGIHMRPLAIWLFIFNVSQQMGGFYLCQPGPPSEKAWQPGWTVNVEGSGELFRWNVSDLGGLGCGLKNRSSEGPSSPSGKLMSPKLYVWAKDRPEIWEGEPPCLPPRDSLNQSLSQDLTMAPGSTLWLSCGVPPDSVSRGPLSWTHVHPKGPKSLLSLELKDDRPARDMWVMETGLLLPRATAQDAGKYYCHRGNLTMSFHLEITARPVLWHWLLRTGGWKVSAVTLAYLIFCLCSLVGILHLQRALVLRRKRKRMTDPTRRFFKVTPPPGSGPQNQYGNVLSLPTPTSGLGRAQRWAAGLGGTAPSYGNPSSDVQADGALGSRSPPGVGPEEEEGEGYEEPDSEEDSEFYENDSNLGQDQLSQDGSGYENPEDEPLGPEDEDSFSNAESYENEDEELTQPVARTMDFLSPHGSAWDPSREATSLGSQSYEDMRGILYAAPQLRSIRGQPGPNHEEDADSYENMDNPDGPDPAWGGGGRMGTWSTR

BCMA [1] = molecular target: T6, BCMA (UniProt Q02223 1-184, limits assumed); experiment: Malibu-Glo assay; NLuc fusion supernatant on L363 cells, control Jurkat cells
T6 construct: whole, on cells; also called TNF receptor family member B cell maturation (BCMA)
T6 sequence (looked up): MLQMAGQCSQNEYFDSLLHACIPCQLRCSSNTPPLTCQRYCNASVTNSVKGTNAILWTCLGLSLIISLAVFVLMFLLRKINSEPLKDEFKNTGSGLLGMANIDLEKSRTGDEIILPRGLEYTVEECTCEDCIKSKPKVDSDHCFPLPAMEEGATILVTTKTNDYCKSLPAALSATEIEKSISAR

BCMA [2] = molecular target: T6, BCMA; experiment: Malibu-Glo assay; NLuc fusion supernatant on H929 cells, control K562 cells
CD20 = molecular target: T7, CD20 (UniProt P11836 1-297, limits assumed); experiment: Malibu-Glo assay; NLuc fusion supernatant on RAJI cells, control K562 cells
T7 construct: whole, on cells
T7 sequence (looked up): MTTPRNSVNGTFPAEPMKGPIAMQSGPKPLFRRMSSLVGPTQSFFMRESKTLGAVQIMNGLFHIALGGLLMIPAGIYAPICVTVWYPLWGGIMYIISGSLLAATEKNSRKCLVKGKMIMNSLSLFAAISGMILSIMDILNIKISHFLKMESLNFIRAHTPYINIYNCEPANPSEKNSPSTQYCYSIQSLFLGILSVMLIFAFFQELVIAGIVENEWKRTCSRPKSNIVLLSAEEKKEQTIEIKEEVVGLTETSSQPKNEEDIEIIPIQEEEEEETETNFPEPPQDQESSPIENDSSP

TAJ/TNFRSF19 = molecular target: T8, TAJ/TNFRSF19 (UniProt Q9NS68 30-423, limits assumed); experiment: Malibu-Glo assay; NLuc fusion supernatant on LNCaP cells, control 293FT cells
T8 construct: whole, on cells
T8 sequence (looked up): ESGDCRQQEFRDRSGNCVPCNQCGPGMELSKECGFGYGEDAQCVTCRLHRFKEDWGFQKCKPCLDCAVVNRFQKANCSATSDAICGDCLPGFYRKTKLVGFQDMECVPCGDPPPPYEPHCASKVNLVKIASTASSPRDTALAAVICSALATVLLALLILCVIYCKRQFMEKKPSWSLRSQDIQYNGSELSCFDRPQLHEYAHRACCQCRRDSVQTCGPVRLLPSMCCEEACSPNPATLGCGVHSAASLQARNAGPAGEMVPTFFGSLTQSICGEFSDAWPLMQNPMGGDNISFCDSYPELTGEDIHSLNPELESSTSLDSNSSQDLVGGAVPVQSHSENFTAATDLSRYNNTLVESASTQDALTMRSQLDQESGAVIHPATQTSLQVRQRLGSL

B1: DLL3-USC5 vHH (DLL3), NLuc fusion (VHH)
VHH: QVQLVESGGGVVQPGGSLRLSCAASFSGYGVSTMAWFRQAPGKGLEGVAAITVGSGNTYYADSVKGRFTISRDNSKNTVYLQMNSLRAEDTAMYYCAVGWLSGGSWHVPGRYNYWGQGTLVTVSS
Fold Change (Luc activity, target cell line over control cell line) (DLL3): 1.7 fold

B2: STEAP2-RGN-1162-USC1 scFv (STEAP2), NLuc fusion (scFv)
chain: QVQLQQSGPGLVKPSQTLSLTCAISGDSVSSNRAAWNWIRQSPSRGLQWLGRTYYRSKWYNDYAVSLRSRITINPVTSKNQVALHMNSVTPEDTAVYYCARAGIVVVPGPETFYYYDHGLDVWGQGTTVTVSSGGGGSGGGGSGGGGSDIQMTQSPSSLSASVGDRVTITCRASQSIRNYLNWYQQKPGKAPELLIHAASSLQSGVPSRFSGSGSGTDFTLTISSLQPEDFASYYCQQSYSAPPITFGQGTRLEIK
Fold Change (Luc activity, target cell line over control cell line) (STEAP2): 27.4 fold

B3: AT264-S30G vHH (CD33), NLuc fusion (VHH)
VHH: EVQLVESGGGSVQAGGSLRLSCAASGYTYGINCMGWFRQAPGKEREGVAVISTGGGRTDYRDSVKGRFTISQDNAKNTVYLQMNSLKPEDTAMYYCAGKTTYPGYGCGLGRSAYNYWGQGTQVTVSS
Fold Change (Luc activity, target cell line over control cell line) (CD33): 28 fold

B4: IL23R-SANG-11 scFv (IL23R), NLuc fusion (scFv)
chain: DIQMTQSPSSLSASVGDRVTITCQASENIYSFLAWYQQKPGKAPKLLIYSASKLAAGVPSRFSGSGSGTDFTLTISSLQPEDFATYYCQQTNRYSNPDIYNVFGQGTKLTVLGGGGGSGGGGSGGGGSEVQLVESGGGLVQPGGSLRLSCAASGIDFNSNYYMCWVRQAPGKGLEWIGCIYVGSHVNTYYANWAKGRFTISRDNSKNTVYLQMNSLRAEDTAVYYCATSGSSVLYFKFWGQGTLVTVSS
Fold Change (Luc activity, target cell line over control cell line) (IL23R): 2.37 fold

B5: hu-mROO5-1 scFv (CD19), NLuc fusion (scFv)
chain: DIQMTQSPSSLSASVGDRVTITCKASDHINNWLAWYQQKPGQAPKLLIYGATTLETGVPSRFSGSGSGTDYTLTISSLQPEDFATYYCQQSWNTPWTFGQGTKLEIKRGGGGSGGGGSGGGGSQVQLQQPGAELVKPGASVKMSCKASGYAFSSYWINWMKQKPGQGLEWIGQIYPGDGDTNYNGKFKGRATLTADTSSSTAYMQLSSLTSEDSAVYFCARSITTVVGCAMDYWGQGTSVTVSS
Fold Change (Luc activity, target cell line over control cell line) (CD19): 933 fold

B6: hu-E59D-US3 vHH (BCMA), NLuc fusion (VHH)
VHH: EVQLVESGGGLVQPGGSLRLSCAASGRTFTMGWFRQAPGKGREFVAAISLSPTLAYYADSVKGRFTISRDNSKNTVVLQMNSLRAEDTAVYYCAADRKSVMSIRPDYWGQGTQVTVSS
Fold Change (Luc activity, target cell line over control cell line) (BCMA [1]): 2 fold

B7: huE59D-AT2 vHH (BCMA), NLuc fusion (VHH)
VHH: B6 VHH with F34Y, G41E, V90L, Q113L
Fold Change (Luc activity, target cell line over control cell line) (BCMA [2]): 2.99 fold

B8: E59D-USC1 vHH (BCMA), NLuc fusion (VHH)
VHH: B6 VHH with E1Q, F34Y, R42L, A46S, V90L, Q113L
Fold Change (Luc activity, target cell line over control cell line) (BCMA [2]): 2.57 fold

B9: huCD20-AT1 vHH (CD20), NLuc fusion (VHH)
VHH: EVQLLESGGGLVQPGGSLRLSCAASGRTFSMGWYRQAPGKGLEFVSAITYSGGSPYYADSVKGRFTISRDNSKNTVYLQMNSLRAEDTAVYYCAANPTYGSDWNAENWGQGTLVTVSS
Fold Change (Luc activity, target cell line over control cell line) (CD20): 15.6 fold

B10: KN5-USC1-R3D scFv (TAJ), NLuc fusion (scFv)
chain: QIVLTQSPAIMSASPGEKVTMTCSASSSVSFMHWYQQKSGTSPKRWIYDTSTLASGVPARFGGSGSGTSYSLTISSMEAEDAATYYCQQWSSNPLTFGAGTKLELKRGGGGSGGGGSGGGGSQVQLQQSGPELVKPGASVRISCKASGYTFTSYYIHWVKQRPGQGLEWIGWIYPGNLNTKYNEKFKGKATLTADKSSSTAYMQLSSLTSEDSAVYFCARYDWYFDVWGAGTTVTVSS
Fold Change (Luc activity, target cell line over control cell line) (TAJ/TNFRSF19): 4.35 fold
